Test results from patent publication US20200199241A1 (Chugai, published 2020).
Numbering of substitutions follows the chain as printed. Names may count otherwise. Like-named read-outs stand apart in the source and are kept apart here.

Tests used:
[1] = molecular target: T1, human FcRn (soluble human FcRn complexed with β2-microglobulin) (human, UniProt P61769 21-119, limits assumed); test: SPR, antibody captured by Protein L, human FcRn as analyte, pH 7.0, 25 C
T1 construct: also called hFcRn

mouse FcγRIIb [2] = molecular target: T2, mouse FcγRIIb (mouse, UniProt P08101 30-207, limits assumed); test: SPR, antibody captured by Protein L, mouse FcγR as analyte, pH 7.4, 25 C; parameters: unit not given here
T2 construct: bought; also called mFcgRIIb; mFcgR IIb
T2 sequence (looked up): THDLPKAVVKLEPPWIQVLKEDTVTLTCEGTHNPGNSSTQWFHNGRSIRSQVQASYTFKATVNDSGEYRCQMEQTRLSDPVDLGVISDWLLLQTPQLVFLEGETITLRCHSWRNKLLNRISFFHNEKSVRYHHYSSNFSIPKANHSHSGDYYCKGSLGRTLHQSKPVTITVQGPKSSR

mouse FcγRIII [3] = molecular target: T3, mouse FcγRIII (mouse, UniProt P08508 31-215); test: as above; parameters: unit not given here
T3 construct: bought; also called mFcgRIII; mFcgR III
T3 sequence (looked up): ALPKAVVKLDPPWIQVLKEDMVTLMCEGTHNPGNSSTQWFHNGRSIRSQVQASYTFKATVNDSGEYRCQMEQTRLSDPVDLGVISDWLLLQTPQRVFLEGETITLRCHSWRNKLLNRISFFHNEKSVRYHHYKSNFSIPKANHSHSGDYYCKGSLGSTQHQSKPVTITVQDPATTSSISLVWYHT

mouse FcγRIV [4] = molecular target: T4, mouse FcγRIV (mouse, UniProt A0A0B4J1G0 21-203); test: as above; parameters: unit not given here
T4 construct: bought; also called mFcgRIV; mFcgR IV; the vendor's purification tag not given
T4 sequence: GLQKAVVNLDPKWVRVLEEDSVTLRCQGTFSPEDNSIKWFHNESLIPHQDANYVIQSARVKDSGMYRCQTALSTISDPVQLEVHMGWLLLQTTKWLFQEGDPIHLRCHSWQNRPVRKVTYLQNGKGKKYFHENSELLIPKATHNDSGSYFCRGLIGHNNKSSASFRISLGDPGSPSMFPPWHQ

mouse FcγRI [5] = molecular target: T5, mouse FcγRI (mouse, UniProt P26151 25-297); test: as above; parameters: unit not given here
T5 construct: bought; also called mFcgRI; mFcgR 1
T5 sequence (looked up): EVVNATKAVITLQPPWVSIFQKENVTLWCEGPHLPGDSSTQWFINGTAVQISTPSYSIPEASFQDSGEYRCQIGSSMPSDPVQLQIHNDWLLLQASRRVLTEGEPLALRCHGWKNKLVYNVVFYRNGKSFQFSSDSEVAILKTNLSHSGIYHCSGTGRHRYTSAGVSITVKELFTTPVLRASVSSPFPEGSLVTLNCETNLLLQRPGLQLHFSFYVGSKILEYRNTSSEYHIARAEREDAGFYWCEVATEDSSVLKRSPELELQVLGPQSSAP

[6] = molecular target: T1, human FcRn (soluble human FcRn …); test: SPR, antibody captured by Protein L, human FcRn as analyte, pH 7.0, 25 C; remark: listed apart in the source
mouse FcγRIIb [7] = molecular target: T2, mouse FcγRIIb; test: SPR, antibody captured by Protein L, mouse FcγR as analyte, pH 7.4, 25 C
mouse FcγRIII [8] = molecular target: T3, mouse FcγRIII; test: as above
mouse FcγRIV [9] = molecular target: T4, mouse FcγRIV; test: as above
mouse FcγRI [10] = molecular target: T5, mouse FcγRI; test: as above
human FcγRIIa(R) = molecular target: T6, human FcγRIIa(R) (human, UniProt P12318 36-217); test: SPR, antibody captured by Protein L, human FcγR as analyte, pH 7.4, 25 C;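 also: biacore T100 or T200 with Protein L amine-coupled on a CM4 chip, FcγRs diluted in ACES saline with polysorbate 20, buffer-only injection as blank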
T6 construct: also called hFcgRIIa(R); FcγRIIa type R
T6 chain: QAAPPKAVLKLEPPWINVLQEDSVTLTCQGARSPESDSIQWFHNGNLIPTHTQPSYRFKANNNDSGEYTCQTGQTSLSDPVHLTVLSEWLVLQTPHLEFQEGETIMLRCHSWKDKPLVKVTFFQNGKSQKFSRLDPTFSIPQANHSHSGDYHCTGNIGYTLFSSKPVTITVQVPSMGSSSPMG

human FcγRIa = molecular target: T7, human FcγRIa (human, UniProt P12314 16-292, limits assumed); test: as above
T7 construct: also called hFcgRIa; hFcgRI

human FcγRIIb = molecular target: T8, human FcγRIIb (human, UniProt P31994 43-217, limits assumed); test: as above
T8 construct: also called hFcgRIIb; FcγIIB
T8 sequence: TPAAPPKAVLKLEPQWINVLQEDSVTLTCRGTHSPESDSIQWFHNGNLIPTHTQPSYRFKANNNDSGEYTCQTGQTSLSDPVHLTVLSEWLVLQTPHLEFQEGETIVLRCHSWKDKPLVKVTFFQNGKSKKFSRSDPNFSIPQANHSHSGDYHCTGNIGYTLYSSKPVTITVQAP

human FcγRIIIa(V) = molecular target: T9, human FcγRIIIa(V) (human, UniProt P08637 17-208, limits assumed); test: as above
T9 construct: also called hFcgRIIIa(V); allotype V158

human FcγRIIa(H) = molecular target: T10, human FcγRIIa(H) (human, UniProt P12318 36-217); test: as above
T10 construct: also called hFcgRIIa(H); FcγRIIa type H
T10 sequence: T6 chain with R133H

[11] = molecular target: T1, human FcRn (soluble human FcRn …); test: SPR, antibody captured by Protein L, human FcRn as analyte, pH 7.0, 25 C; remark: listed apart in the source

T7 sequence (P12314 16-292 limits assumed): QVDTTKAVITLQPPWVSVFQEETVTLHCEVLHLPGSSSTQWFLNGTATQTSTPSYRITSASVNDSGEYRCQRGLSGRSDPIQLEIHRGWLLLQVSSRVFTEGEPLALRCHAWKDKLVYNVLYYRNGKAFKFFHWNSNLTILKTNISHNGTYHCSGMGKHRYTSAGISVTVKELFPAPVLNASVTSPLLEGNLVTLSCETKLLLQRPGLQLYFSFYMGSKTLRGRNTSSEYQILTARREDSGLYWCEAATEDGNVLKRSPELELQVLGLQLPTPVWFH
T9 sequence (P08637 other isoform, or with tags, fused parts or gaps limits assumed): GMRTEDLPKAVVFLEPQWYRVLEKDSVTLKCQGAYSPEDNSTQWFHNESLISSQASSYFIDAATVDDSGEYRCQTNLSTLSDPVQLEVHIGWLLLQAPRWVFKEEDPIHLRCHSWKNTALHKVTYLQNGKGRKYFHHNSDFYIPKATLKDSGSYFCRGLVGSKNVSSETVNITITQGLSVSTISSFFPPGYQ

- Kd [1]: 11 nM
- binding amount (mouse FcγRIIb [2]): 129
- binding amount (mouse FcγRIII [3]): 664
- binding amount (mouse FcγRIV [4]): 279
- binding amount (mouse FcγRI [5]): 329
- Kd [6]: 11 nM
- BINDING AMOUNT (RU) (mouse FcγRIIb [7]): 117 RU
- BINDING AMOUNT (RU) (mouse FcγRIII [8]): 382 RU
- BINDING AMOUNT (RU) (mouse FcγRIV [9]): 242 RU
- BINDING AMOUNT (RU) (mouse FcγRI [10]): 299 RU
- BINDING AMOUNT (RU) (human FcγRIIa(R)): 148 RU
- BINDING AMOUNT (RU) (human FcγRIa): 368 RU
- BINDING AMOUNT (RU) (human FcγRIIb): 70.6 RU
- BINDING AMOUNT (RU) (human FcγRIIIa(V)): 221 RU
- BINDING AMOUNT (RU) (human FcγRIIa(H)): 154 RU
- Kd [11]: 11 nM
B1: antibody with VH3-IgG1-F947 heavy chain and L(WT)-CK light chain (antibody)
heavy: QVQLQESGPGLVKPSETLSLTCAVSGHSISHDHAWSWVRQPPGEGLEWIGFISYSGITNYNPSLQGRVTISRDNSKNTLYLQMNSLRAEDTAVYYCARSLARTTAMDYWGEGTLVTVSSASTKGPSVFPLAPSSKSTSGGTAALGCLVKDYFPEPVTVSWNSGALTSGVHTFPAVLQSSGLYSLSSVVTVPSSSLGTQTYICNVNHKPSNTKVDKKVEPKSCDKTHTCPPCPAPELLGGPSVFLFPPKPKDVLYISRTPEVTCVVVDVSHEDPEVKFNWYVDGVEVHNAKTKPREEQYNSTYRVVSVLQPLHADWLNGKEYKCKVSNKALPAPIEKTISKAKGQPREPQVYTLPPSRDELTKNQVSLTCLVKGFYPSDIAVEWESNGQPENNYKTTPPVLDSDGSFFLYSKLTVDKSRWQQGNVFSCSVMHEALHYHVTQKSLSLSP
light: not shown
notes: T250V/M252Y/T307Q/V308P/Q311A/N434Y/Y436V; copies: 2 + 2
